Test results: paper PMC8632080

How the values were obtained:
Assay in all cases: ELISA; dose-response: host component coated as in the single-dose assay; increasing concentrations of recombinant protein (0–6 µM LipL21, 0–1.5 µM LipL41) in PBS-BSA, 2 h 37°C; KD from non-linear regression, one site-specific binding (GraphPad Prism 7)
[1] = target: E-cadherin (human recombinant) (human) (UniProt P12830)
[2] = target: laminin (human placenta) (human)
collagen IV = target: collagen IV
[3] = target: elastin (human aorta) (human) (UniProt P15502)
[4] = target: plasma fibronectin (human plasma) (human)
[5] = target: vitronectin (human plasma) (human)
[6] = target: plasminogen (human plasma) (human)
[7] = target: collagen type I (rat tail) (rat) (UniProt P02454)
[8] = target: fibrinogen (human plasma) (human) (UniProt P02671)
Sequence of UniProt P02671 (P02671 36-866, chain 1 of 3): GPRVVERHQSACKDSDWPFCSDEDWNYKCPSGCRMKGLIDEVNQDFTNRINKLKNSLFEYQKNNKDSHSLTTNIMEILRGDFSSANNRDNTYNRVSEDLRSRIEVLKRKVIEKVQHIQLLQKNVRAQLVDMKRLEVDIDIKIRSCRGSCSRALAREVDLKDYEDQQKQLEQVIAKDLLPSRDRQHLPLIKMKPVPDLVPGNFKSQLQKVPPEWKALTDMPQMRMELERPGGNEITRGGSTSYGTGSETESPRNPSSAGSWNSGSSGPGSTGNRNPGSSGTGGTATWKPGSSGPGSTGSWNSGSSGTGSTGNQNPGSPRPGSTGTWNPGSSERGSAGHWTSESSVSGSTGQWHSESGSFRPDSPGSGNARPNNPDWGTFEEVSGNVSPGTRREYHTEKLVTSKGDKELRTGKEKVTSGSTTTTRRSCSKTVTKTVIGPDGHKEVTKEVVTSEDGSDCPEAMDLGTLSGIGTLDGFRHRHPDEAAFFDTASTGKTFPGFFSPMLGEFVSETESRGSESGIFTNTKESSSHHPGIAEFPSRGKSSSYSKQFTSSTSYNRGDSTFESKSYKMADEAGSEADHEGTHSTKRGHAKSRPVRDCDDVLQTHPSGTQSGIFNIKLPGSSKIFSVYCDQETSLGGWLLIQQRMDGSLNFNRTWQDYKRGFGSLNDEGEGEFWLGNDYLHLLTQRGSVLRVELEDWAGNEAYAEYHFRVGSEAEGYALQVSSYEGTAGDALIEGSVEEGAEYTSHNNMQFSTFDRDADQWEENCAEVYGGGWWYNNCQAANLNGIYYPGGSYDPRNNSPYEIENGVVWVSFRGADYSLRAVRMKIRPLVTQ
Sequence of UniProt P02671 (P02675 45-491, chain 2 of 3, further chain): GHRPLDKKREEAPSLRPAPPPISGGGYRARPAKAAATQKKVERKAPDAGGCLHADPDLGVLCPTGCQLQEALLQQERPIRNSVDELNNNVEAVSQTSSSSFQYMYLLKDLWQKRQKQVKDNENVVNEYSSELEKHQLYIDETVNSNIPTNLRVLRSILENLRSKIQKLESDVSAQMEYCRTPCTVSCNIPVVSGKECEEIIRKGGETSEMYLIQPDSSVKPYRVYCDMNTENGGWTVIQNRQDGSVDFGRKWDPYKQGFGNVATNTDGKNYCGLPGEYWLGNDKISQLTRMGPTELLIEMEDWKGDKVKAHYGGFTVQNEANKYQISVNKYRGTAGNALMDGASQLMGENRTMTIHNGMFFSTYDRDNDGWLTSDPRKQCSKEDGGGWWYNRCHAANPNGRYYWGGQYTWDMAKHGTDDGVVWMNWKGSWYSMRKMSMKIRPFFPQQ
Sequence of UniProt P02671 (P02679 27-453, chain 3 of 3, further chain): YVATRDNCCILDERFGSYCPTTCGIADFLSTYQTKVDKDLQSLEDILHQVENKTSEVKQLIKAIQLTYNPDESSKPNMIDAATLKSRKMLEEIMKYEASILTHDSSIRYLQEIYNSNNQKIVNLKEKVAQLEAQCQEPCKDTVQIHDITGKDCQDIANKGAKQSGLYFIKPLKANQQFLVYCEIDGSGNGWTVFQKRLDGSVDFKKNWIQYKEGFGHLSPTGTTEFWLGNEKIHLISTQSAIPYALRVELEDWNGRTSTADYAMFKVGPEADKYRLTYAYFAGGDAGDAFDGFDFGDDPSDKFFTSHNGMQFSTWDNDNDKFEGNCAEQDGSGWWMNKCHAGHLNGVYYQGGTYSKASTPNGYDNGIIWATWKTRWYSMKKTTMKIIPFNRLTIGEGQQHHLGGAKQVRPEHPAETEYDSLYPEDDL

Sequence of UniProt P15502 (P15502 27-786): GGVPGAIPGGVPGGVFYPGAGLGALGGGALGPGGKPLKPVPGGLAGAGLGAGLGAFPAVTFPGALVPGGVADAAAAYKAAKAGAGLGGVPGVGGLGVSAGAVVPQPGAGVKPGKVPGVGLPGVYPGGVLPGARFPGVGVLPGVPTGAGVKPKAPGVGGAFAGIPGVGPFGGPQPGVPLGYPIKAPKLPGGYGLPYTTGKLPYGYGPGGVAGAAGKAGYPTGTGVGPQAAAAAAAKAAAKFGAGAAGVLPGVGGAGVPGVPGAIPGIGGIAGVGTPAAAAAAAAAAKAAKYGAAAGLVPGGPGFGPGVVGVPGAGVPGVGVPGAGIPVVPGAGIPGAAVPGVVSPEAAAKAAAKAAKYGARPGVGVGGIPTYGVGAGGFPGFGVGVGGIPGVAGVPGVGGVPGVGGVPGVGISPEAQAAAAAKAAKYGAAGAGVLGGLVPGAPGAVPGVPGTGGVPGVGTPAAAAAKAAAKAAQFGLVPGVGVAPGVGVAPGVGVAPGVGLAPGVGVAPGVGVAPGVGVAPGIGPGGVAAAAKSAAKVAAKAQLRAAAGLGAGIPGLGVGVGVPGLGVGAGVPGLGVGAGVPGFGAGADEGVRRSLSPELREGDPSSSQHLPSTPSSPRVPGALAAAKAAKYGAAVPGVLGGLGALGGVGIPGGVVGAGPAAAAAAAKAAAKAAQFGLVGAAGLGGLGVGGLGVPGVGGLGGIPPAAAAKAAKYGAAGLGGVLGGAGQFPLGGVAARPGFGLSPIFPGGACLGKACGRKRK
Sequence of UniProt P02454 (P02454 152-1207, chain 1 of 2): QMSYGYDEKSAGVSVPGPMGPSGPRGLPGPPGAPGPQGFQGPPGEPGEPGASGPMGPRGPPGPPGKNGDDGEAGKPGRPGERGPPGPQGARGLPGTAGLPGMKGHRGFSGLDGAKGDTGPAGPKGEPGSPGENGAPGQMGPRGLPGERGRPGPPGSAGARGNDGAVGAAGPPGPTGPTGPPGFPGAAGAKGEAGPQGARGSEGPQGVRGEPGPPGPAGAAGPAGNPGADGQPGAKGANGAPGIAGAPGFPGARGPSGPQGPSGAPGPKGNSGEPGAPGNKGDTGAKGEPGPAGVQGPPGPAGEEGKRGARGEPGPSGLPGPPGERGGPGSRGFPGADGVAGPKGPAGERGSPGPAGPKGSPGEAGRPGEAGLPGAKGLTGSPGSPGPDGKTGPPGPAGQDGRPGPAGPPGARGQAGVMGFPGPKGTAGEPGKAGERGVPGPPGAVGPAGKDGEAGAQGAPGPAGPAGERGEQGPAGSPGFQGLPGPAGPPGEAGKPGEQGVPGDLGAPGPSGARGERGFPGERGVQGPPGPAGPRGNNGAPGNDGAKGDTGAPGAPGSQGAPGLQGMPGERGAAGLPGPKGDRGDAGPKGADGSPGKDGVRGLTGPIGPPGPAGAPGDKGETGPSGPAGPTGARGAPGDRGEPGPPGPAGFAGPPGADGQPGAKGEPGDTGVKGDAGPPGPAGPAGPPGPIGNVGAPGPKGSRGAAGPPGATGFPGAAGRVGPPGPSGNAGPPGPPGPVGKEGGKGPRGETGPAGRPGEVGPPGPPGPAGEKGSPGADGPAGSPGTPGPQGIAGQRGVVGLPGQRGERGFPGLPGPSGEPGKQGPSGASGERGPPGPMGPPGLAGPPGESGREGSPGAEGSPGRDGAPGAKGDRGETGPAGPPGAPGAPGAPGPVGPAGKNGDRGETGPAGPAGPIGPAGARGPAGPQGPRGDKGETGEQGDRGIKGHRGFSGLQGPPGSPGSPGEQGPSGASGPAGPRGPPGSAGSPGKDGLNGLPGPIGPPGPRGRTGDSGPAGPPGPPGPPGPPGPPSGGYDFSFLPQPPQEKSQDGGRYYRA
Sequence of UniProt P02454 (P02466 86-1125, chain 2 of 2, further chain): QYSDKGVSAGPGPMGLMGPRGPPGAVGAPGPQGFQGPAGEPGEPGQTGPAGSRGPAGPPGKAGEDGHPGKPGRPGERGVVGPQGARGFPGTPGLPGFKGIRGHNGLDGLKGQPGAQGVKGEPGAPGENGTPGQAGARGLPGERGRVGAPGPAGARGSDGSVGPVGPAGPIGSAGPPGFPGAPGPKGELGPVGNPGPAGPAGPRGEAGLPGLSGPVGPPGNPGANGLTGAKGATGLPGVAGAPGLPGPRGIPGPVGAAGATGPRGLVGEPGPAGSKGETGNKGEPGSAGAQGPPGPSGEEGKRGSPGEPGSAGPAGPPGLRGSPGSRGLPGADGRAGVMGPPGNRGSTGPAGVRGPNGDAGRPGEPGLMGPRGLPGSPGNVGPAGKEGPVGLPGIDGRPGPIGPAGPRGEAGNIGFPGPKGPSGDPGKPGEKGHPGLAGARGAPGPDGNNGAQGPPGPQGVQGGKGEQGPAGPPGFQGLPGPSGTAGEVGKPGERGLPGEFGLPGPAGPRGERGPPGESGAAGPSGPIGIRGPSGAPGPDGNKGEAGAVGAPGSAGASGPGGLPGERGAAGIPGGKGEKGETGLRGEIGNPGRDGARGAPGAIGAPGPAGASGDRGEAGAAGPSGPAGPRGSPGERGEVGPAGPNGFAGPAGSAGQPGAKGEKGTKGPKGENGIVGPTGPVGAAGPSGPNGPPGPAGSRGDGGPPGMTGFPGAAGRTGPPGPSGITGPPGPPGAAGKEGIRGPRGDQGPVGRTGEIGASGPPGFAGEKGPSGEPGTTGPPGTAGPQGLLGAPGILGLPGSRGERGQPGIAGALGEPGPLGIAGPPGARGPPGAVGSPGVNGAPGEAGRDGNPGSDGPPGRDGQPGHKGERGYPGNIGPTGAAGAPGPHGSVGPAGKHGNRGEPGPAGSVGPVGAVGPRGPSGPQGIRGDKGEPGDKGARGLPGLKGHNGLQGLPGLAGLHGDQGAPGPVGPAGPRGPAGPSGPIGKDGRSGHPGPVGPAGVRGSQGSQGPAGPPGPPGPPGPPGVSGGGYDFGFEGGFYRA

With “recombinant LipL41 (LIC12966) (natural protein)” the Kd [1] was 1380 nM, the Kd [2] was 312 nM and the Kd (collagen IV) was 537 nM. It also gave a Kd [3] of 2720 nM.

With “recombinant LipL21 (LIC10011) (natural protein)” the Kd [4] was 2540 nM, the Kd [1] was 147 nM and the Kd [2] was 287 nM. It also gave a Kd (collagen IV) of 53.9 nM, a Kd [5] of 424 nM and a Kd [6] of 13.8 nM. It also gave a Kd [7] of 6140 nM, a Kd [3] of 171 nM and a Kd [8] of 1120 nM.
